Source: patent US20060292157A1 (TRUSTEES OF COLUMBIA UNIVERSITY IN THE CITY OF NEW YORK, published 2006)

Biological target: T1, BiP/GRP78 (endogenous) (human (endogenous in human HeLa cells), UniProt P11021 19-654)
T1 construct: Immunoprecipitated from cell lysates with BiP/GRP78 antibodies; also called ER chaperone BiP/GRP78
Experiment: co-IP with BiP/GRP78 antibodies, blot with Flag antibodies; wild type against C/F mutants; HeLa and P69 cells
Source text: These mutants were used to examine whether disruption of these regions altered interaction with BiP/GRP78 in HeLa (FIG. 11E) and P69 cells. BiP/GRP78 was immunoprecipitated using BiP/GRP78 antibodies and the membrane was probed with Flag antibodies (FIG. 11E). The C/F helix mutants of MDA-7/1IL-24 and M4 lost their ability to bind to BiP/GRP78 (FIG. 11E).
Cells were infected with Ad.vec, Ad.M4 or Ad.mda-7 or transfected with various plasmid (Flag tagged MDA7 or M4 and Myc tagged BiP) constructs in a 100-mm dish and after 48 h cells were rinsed with ice-cold phosphate buffered saline (PBS). Cells were lysed in 1 ml of immunoprecipitation buffer containing 25 mM Tris-Cl pH8.0, 137 mM NaCl, 2.5 mM KCl, 1% Triton X-100 and protease inhibitor mix. Cells were scrapped from the plates, transferred into microfuge tubes and rotated at 4° C. for 30 minutes. Tubes were centrifuged for 10 min at 13,000 rpm and 10 μl of supernatant were incubated with 50% Protein A agarose and rotated at 4° C. for 1 h to eliminate non-specific interactions. Samples were centrifuged and mixed with anti BiP/Grp78 or 9E10 myc monoclonal antibodies (1:200) dilution and rotated overnight at 4° C. Immune-complexes were precipitated with 25 μl of 50% protein A agarose for 2 h. […]

T1 sequence (P11021 19-654 limits assumed): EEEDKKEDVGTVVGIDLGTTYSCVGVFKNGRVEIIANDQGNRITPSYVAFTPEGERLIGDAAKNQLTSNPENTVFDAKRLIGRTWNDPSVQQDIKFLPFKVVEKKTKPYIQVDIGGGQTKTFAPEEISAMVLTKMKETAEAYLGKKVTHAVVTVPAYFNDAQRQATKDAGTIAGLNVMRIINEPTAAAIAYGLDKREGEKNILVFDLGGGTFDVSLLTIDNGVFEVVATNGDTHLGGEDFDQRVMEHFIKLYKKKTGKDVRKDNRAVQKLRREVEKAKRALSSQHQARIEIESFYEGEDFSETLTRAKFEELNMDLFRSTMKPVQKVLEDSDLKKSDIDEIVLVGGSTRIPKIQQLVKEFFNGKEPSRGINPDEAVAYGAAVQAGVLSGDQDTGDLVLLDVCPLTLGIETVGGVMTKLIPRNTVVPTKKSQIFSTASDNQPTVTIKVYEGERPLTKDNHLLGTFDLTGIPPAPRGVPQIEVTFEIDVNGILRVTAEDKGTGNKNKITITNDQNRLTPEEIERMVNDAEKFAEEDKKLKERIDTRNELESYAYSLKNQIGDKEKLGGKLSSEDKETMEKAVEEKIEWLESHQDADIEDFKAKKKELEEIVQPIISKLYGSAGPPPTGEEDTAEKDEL

binding result: binds
B1: Flag-tagged M4 (amino acids 104-206 of MDA-7/IL-24, pCMV3xFlag) (other)
chain: ESCYLVHTLLEFYLKTVFKNYHNRTVEVRTLKSFSTLANNFVLIVSQLQPSQENEMFSIRDSAHRRFLLFRRAFKQLDVEAALTKALGEVDILLTWMQKFYKL
notes: Transiently expressed in HeLa cells; also called Flag M4; not shown: three Flag tags at the N-terminus from vector pCMV3xFlag (Sigma)
